In the nanobody polyreactivity screen of Harvey et al. (2022):

Assay: yeast display, Sf9 membrane polyspecificity reagent, FACS + sequencing; frameworks hold sequencing errors
Method in brief: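 After 36–48 hours of galactose induction, yeast (Saccharomyces cerevisiae BJ5465) displaying a synthetic nanobody library were stained at 4 °C for 1 hour with 10% biotinylated, detergent-solubilized Sf9 membrane reagent. Streptavidin microbeads enriched the stained cells before FACS sorting into low and high (top ~1%) gates on anti-HA and streptavidin fluorescence. Each clone's polyreactivity label reflects its gate of origin.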

| Sequence | polyreactivity (PSR sort gate) |
| --- | --- |
| QVQLVESGGGLVQAGGSLRLSCAASGRTLKWYAMGWYRQAPGKERELVAAISWSGGSTYYADSVKGRFTISRDNAKNTVYLQMNSLKPEDTAVYYCAVAVTSYSSKKLYYWGQGTQVTVSS | low polyreactivity |
| QVQLVESGGGLVQAGGSLRLSCAASGRTFEYYAMGWYRQAPGKERELVAGISWSGGSTYYADSVKGRFTISRDNAKNTVYLQMNSLKPEDTAVYYCNARYLPRSTIYDYWGQGTQVTVSS | high polyreactivity |
| QVQLVESGGGLLQAGGSLRLSCDASGRIFGPNARGWYRQAPGKERELVDSISYSGGYTYYADSVKGRFTISRDNAKITFYLQMLSLIPVDTAVYYCAKGGYWSGYNYWGHGTQVTVSS | low polyreactivity |
| QVQLVESGGGLVQAGGSLRLSCAASGSIFISYAMGWYRQAPGKERELVAAINSGGSTNYADSVKGRFTISRDNAKNTVYLQMNSLKPEDTAVYYCAVDGYFFQGPYYYWGQGTQVTVSS | low polyreactivity |
| QVHLQESGGGLVQAGGSLRLSCAASGTIFRFRYMGWHRQAPGKERELVAGINGGTTTYYADSVIGRFTISRDNAKNTVYLQMNSLKPDDTAVYNCAAGASRLTYYDFWGQGTQVTVSS | low polyreactivity |
| QVQLVESGGGLVQAGGSLRLSCAASGGTLFQNAMGWYRQAPGKERELVATIRVSGGITYYADSVKGRFTISRDNAKNTVYLQMNSLKPEDTAVYYCAKDSADSRAVGDVLTFDYWGQGTQVTVSS | low polyreactivity |
| QVQLVESGGGIVQAGGSLRLSCAASGITFAFYDMGWYRQAPGTERELVAAISYSGGGTYYADSVKGRFTISRDNAKNTVYLQMNSLKPEDTAVYYCAADPKTHPLFGEDYWGQGTQVTVSS | low polyreactivity |
| QVQLVESGGGLVQAGGSLRLSCAASGFTFRYYAMGWYRQAPGKERELVASISRSGSGTFYADSVKGRFTISRDNAKNTVYLQMNSLKPEDTAVYYCNAVSAAKIPFQKYGYWGQGTQVTVSS | high polyreactivity |
| QVQLVESGGGLVQAGGSLRLSSAASGSIFYYNAMGWYRQAPGKEREFVAAISARGGSTYYADSVKGRFTISRDNAKNTVYLQMNSLKPEDTAVYYCAASWGLDTYSDSTYWGGYYYSGQGTQVTVSS | low polyreactivity |
| QVQLVESGGGLVQAGGSLRLSCAASGSTFRINAMGWYRLAPGKEREFVAAIRWNGGSTNYADSVKGRFTISRDNAKNTVYVQMNSLKPEDTAVYYCAADGYIGWRHIYEYWGQGTQVTVSS | low polyreactivity |
| QVQLVESGGGIVQAGGSLRLSCAASGRTFVSYAKGWYRQAPGKERELVAAISSSGGRTYYADSVKGRFTISRDNAKNTVYLQMNSLKPEDTAVYYCNAVRFISARYDYWGQGTQVTVSS | high polyreactivity |
| QVQLVESGGGLVQAGGSLRLSCAASGGTFLYNAMGWYRQAPGKERELVAAISRSGGRTDYADSVKGRFTISRDNAKNTVYLQMNSLKPEDTAVYYCATPGTYYTHRYRYDYWGHGTQVTVSS | high polyreactivity |
| QVQLVDSGGGLVQAAGSLRLSCAASGSIFIFNTMGWYRQAPGKESELVASISSSGSTYYADSVKGRFTISRDNAKNTVYLQMKSLKPEDTAVYYCAATYYRPAYYGSYYYWGQGTQVTVSS | low polyreactivity |
| HVQLVESGGGLVQAGGRLRLSCAASGGTFWHYAMGWYRKAPGKERELFAAIRWRGVRTYYADSVKGRFTISRDNAKNTVYLQMNSLKPEDTAVYYCASTTWRSGRYNYWGQGTQVTVSS | high polyreactivity |
| QVQLVESGGGLVQAGGSLRLSCAATGRTFVTYAMGWYRQAPGKEREFVAAITWSTGTSTYYADSVKGRFTISRDNAKNTVFLQIHSLNQEDTAVDYCHADSQEWIWLYEGYDYWGQGTQVSVSS | low polyreactivity |
| QVQLVESGAGLVQAGGSLRLSCAASGLTFDYYAMGWYRQAPGKEREFVAAITRRGGGTYYADSVKGRFTISRDNAKNTVYLQMNSLKPEDTAVYYCAAYGCGNRWYSRFDYWGQGTQVTVSS | high polyreactivity |
| QVQLVESGGGLVQAGGSLRLSCAASGSTFQSNAMGWYRQAPGKERELVAAITVSAGSTYYADSVKGRFTISRDNAKNTVYLQMNSLKPEDTAVYFCAANRYVYPSYRFDYWGQGTQVTVSS | low polyreactivity |
| QVQLVESGGGLVQAGGSLRLSCSASGLIFRYYAMGWYRQAPGKEREFVAAISGRGASTYYADSVKGRFTISRDNSKNTVYLQMNSLKPEDTAVYYCATYFPSAVVAFHMEYWGQGTQVTVSS | low polyreactivity |
| QVQLVESGGGLVQAGGSLRLSCAASGSIFYVYAMGWYRQAPGKERELVAAITWIDGSTYYADSVKGRFTISRDNAKNTVYLQMNSLKPEDTAVYYCAAGGYFYSFYYWGQGTQVTVSS | low polyreactivity |
| QVQLVESGGGLVQAGGSLRLSCAASGRIFDVNAMGWYRQAPGKEREFVAAINSRGDSTYYADSVKGRFTISRDNAKNTVYLQMNSLKPEDTAVYYCNVRGYSYSYRFWRYDYWGQGTQVTVSS | high polyreactivity |
| QVQLVESGGGFVQAGGSLRLSSAASGINFYRKTMGWYRQAPGKERELVASISRGGSTYYADSVKGRFTISRDNAKNTVYLQMNILKPEDTAVYYCSTSGQQYYSRNFDYWGQGTQVTVSS | low polyreactivity |
| QVQLVESGGGLVQAGGSIRLSCAASGRTFGYYAMGWYRQAPGKERELVAAISWSGGRTYYADSVKGRFTISRDNAKNTVYLQMNSLKPEDTAVYYCAAQTAGFWYDYWGQGTQVTVSS | high polyreactivity |

| Sequence | polyreactivity (PSR sort gate) |
| --- | --- |
| QVQLVESGGGLVQAGGSLRLSCAASGSIFTHNAMGWYRQAHGKERELVAAISSGGSTNYADSVKGRFTISRDNAKNTVYLQMNSLKPEDTAVYYCAKSIDGWYWRRRRYDYWGQGTQVTVSS | low polyreactivity |
| QVQLVESGGGLVQAGGSLRLSCAASGSTFDRYGMGWYRQAPGKERELVAAISWSGGSTYYADSVKGRFTFSRDNAKNTVYLQMNSLKPEDTAVYYCNAVLYRFAYNYWGQGTQVTVSS | low polyreactivity |
| QVQLVESGGGLVQAGGSLRLSCAASGNIFAVNAMGWSRQAPGKERELVARIRYSTGRTYYADSVKGRFTISRDNAKNTVYLQMNSLKPEDTAVYYCATDYYTTRVPGGYDYWGHGTQVTVSS | high polyreactivity |
| QVQLVESGGGLVQAGGSLRLSCAASGIIFGTYAMGWYRQAPGKERELVAAINWSGGSTYYADSVKGRFTISRDNAKNTVYLQMNSLKPEDTAVYYCAADGNEYDYWGQGTQVTVSS | low polyreactivity |
| QVQLVESGGGLVQAGGSLRLSCAASGRTFRYNTMGWYRQAPRKERELFAAISRGGRTYYADSVKGRFTISRDNAKNTVYLQMNSLKPEVTAVDYCAAPAAGDEYDYWGQGTQVTVSS | high polyreactivity |
| QVQLVESGGGLVQAGGSLRLSCAASGYTILSYGMGWYRQAPGKERELVADISSGDRTNYADSVKGRFTISRDNAKNTVYLQMNSLKPEDTAVYYCNADRASSSVGYSDDFGHDSWGQGTQVTVSS | low polyreactivity |
| QDQLVESVGGLVQAGGSLRLSCAASGITFRYYTMGWYRQAPGKESELVAVISWSGGSTYYADSVKGRFTISRDNAKNTVYLQMNSLKPEDTAVYYCAAVRRISRYDYWGQGTQVTVSS | high polyreactivity |
| QFQLVESGGGLVQAGGSLRLSCAAYGSTLYPYEMGWYRQAPGKERELVAAIDSGGSKNYADSVKGRFTISRDNAKNTVYLQMNSLKPEDTAVYYCAADGGVAWGYGYWGQGTQVTVSS | low polyreactivity |
| QVQLVESGGGLVQAGGSLRLSCAASGSIFTGYAMGWYRQARGKESELVAAIDDSGDSTYYADSVKVRFTISRDNATNTVYLQMNSLKPEDTAVYYSKAEYRVNKEYDYWGQGTQVTVSS | low polyreactivity |
| QVQLVESGGGLVQAGGSLRLSCAASGRIFTAYAMGWYRQAPGKERELVAAISSGDSTYYADSVKGRFTISRDNAKNTVYLQMNSLKPEDTAVYYCAAEGYLWGQSYNGLNYDSWGQGTQVTVSS | low polyreactivity |
| QVQLVESGGGLVQAGGSLRLSCAASGSIFNGYDMGWYRQAPGKERELVAAISLSGDSTYYADSVKGRFTISRDNAKNTVYLQMNSLKPEDTAVYYCAAADYFRSYWGQGTQVTVSS | low polyreactivity |
| QVQLVESGGGLVQAGGSLRLSCAASGRIFRYYAMGWYRQAPGKERELVASINSGGSTYYADSVKGRFTISRDNAKNTVYLQLNSLKPEDTAVYYCAKRVGHSRHADNDYWGQGTQVTVSS | low polyreactivity |
| QVQLVESGGGLVQAGGSLRLSCAASGFIFYPNAMGWYRQAPGKERELVAGISWSGTSTYYADSVKGRFTISRDNAKNTVYLQMNSLKPEDTAVYYCNRVFYHFDVDRYDYWGQGTQVTVSS | low polyreactivity |
| QVQLVESGGGLVQAGGSLRLSCAASGSIFSRNVMGWSRQAPGKERELVAGISWRGGRTYYADSVKGRFTISRDNAMITVYLQMTSLKPEDTAVYYCAKGGVSYGEGDYWGQGTQVTVSS | high polyreactivity |
| QVQLVESGGGLVQAGGSLRISCAASGRIFVVYVMGWYRQAPGKEREFVAAITWGGGNTYYADSVKGRFTISRDNAKNTVYLQMNSLKPEDTAVYYCNAVWYWGDMDYWGQGTQVTVSS | low polyreactivity |
| QVQLVESGGGLVQAGGSLRLSCAASGFLPNAMGWYRQAPGKERELVAAISSRGGSTYYADSVKGRFTISRDNAKNTVYLQMISLKPEDTAVYYCAATYYGRDGYRYDYWGQGTQVTVSS | high polyreactivity |
| QVQLVESGGGLVQAGGSLRLSCAASGITLTIYVMGWYRQAPGKEREFVAAISKSGGSTYYADSVKGRFTISRDNAKNTVYLQMNSLKPEDTAVYYCAADVILYDFADYYVIYDYWGQGTQVTVSS | high polyreactivity |
| QVQLVESGGGLVQAGGSLRLSCAASGITFRGYTMGWYRQAPGKERELVARIRSSDGSTYYADSVKGRFTISRDNAKNTVYLQMNSLKPEDTAVYYCNADRRGRALKYYSWGQGTQVTVSS | low polyreactivity |
| QVQLVESGGGLVQAGGSLRLSCAASGIIFGQNALGWYRQAPGKEREVVAAITISGGSTYYSDSVKGRFTISRDNAKNTVYLQMNSLKPEDTAVYYCAAEWYYVYIAPYDYWGQGTQVTVSS | low polyreactivity |
| QVQLVESGGGLLQAGGSLRLSCAASVRIFYGYAMGWYRPAPGKERELVAAIDSVGDTYYADSVKGRFTISRDNAKNTVYLQMNSLNPEDTAVYYCAADRTGGIVLSPTDEMDYWGQGTQVTVSS | low polyreactivity |
| QVQLVESGGGLVQAGGSLRLSCAASGHIFPTNAMGWYRQAPGKERELVAVISESVGSTYYADSVKGRFTISRDNAKNTVYLQMNSLKPEDTAVYYCAVRSRTPRAYYYWGQGTQVTVSS | low polyreactivity |
